From paper PMC3074145 (Nucleic Acids Research, 2010)
Like-named read-outs stand apart in the source and are kept apart here.

Experiments:
Sld2 = target: T1, Sld2 (Saccharomyces cerevisiae, UniProt P34252 1-453); assay: fluorescence anisotropy
T1 sequence: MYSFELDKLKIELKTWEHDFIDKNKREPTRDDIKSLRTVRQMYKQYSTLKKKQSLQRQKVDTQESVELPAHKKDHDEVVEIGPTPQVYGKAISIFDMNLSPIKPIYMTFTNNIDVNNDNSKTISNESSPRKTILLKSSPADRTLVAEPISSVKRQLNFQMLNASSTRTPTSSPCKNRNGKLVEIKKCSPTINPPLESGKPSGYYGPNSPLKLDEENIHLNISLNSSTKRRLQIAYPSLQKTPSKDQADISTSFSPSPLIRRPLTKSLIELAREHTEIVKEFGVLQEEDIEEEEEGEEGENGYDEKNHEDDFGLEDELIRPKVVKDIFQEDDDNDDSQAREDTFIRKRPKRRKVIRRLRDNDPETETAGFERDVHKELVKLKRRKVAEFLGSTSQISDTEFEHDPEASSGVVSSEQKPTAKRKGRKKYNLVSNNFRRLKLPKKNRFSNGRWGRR

Sld2T84D = target: T2, Sld2T84D (Saccharomyces cerevisiae, UniProt P34252 1-453, T84D); assay: fluorescence anisotropy
T2 sequence: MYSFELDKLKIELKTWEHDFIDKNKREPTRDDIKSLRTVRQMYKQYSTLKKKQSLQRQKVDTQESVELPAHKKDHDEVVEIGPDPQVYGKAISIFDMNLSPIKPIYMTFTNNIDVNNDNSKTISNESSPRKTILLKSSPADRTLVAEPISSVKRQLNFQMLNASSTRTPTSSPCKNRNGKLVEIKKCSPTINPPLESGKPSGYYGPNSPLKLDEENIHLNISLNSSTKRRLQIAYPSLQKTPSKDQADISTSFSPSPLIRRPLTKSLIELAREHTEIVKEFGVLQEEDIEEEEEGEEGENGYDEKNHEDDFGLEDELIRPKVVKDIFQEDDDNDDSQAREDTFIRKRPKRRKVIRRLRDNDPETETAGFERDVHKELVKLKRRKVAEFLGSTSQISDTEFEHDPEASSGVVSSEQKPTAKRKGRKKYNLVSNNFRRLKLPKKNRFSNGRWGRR

Dpb11;Sld2T84D = target: T3, Dpb11;Sld2T84D (Saccharomyces cerevisiae;Saccharomyces …, UniProt P47027;P34252 1-764;1-453, |T84D); assay: biotin-DNA pull-down
T3 sequence 1: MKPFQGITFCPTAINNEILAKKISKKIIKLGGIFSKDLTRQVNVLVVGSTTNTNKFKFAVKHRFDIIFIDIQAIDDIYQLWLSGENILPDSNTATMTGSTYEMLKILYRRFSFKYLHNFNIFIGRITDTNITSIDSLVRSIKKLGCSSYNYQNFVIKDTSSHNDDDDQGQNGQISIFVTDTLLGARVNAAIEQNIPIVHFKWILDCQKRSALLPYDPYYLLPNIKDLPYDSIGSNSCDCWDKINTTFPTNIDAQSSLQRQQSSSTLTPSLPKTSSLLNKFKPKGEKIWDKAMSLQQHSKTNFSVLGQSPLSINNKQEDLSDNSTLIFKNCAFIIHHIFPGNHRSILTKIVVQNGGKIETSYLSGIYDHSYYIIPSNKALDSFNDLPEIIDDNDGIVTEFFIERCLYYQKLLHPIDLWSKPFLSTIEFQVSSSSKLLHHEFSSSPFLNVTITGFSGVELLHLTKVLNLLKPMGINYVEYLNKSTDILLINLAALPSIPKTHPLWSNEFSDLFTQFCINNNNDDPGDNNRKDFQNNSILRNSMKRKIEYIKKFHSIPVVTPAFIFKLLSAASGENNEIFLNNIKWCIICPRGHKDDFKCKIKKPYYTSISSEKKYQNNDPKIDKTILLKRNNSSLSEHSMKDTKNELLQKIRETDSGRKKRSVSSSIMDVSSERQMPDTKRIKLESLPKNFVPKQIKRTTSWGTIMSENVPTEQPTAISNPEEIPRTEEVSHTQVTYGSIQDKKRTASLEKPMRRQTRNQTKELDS
T3 sequence 2: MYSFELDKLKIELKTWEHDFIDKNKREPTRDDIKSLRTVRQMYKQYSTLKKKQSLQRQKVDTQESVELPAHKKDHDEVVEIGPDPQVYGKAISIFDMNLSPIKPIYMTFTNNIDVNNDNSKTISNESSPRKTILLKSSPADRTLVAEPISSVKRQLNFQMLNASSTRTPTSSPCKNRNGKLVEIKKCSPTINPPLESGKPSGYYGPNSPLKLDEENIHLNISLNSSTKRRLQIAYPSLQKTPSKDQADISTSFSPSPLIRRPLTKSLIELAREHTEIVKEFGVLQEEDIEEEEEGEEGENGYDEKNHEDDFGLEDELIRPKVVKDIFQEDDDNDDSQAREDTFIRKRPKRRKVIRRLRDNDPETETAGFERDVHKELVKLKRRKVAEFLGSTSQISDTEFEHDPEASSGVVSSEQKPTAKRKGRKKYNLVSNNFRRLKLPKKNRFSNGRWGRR

GST-Sld2T84D [1] = target: T4, GST-Sld2T84D (Saccharomyces cerevisiae, UniProt P34252 1-453, T84D); assay: GST pull-down
T4 sequence: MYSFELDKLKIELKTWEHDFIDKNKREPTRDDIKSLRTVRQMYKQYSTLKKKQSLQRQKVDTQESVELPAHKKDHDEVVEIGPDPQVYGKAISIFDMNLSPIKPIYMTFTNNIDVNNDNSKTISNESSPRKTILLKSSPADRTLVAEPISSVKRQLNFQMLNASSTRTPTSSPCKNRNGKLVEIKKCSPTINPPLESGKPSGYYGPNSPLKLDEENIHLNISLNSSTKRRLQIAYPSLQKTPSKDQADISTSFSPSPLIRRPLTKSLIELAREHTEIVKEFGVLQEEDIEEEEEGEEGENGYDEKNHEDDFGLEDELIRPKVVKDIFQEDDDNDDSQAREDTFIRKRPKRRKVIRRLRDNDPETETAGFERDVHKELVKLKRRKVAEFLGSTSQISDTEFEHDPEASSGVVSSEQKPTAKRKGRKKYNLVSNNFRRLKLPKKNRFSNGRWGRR

GST-Sld2T84D [2] = target: T4, GST-Sld2T84D; assay: GST pull-down; remark: listed apart in the source
GST–Dpb11 = target: T5, GST–Dpb11 (S. cerevisiae, UniProt P47027 1-764); assay: pull-down
T5 sequence (looked up): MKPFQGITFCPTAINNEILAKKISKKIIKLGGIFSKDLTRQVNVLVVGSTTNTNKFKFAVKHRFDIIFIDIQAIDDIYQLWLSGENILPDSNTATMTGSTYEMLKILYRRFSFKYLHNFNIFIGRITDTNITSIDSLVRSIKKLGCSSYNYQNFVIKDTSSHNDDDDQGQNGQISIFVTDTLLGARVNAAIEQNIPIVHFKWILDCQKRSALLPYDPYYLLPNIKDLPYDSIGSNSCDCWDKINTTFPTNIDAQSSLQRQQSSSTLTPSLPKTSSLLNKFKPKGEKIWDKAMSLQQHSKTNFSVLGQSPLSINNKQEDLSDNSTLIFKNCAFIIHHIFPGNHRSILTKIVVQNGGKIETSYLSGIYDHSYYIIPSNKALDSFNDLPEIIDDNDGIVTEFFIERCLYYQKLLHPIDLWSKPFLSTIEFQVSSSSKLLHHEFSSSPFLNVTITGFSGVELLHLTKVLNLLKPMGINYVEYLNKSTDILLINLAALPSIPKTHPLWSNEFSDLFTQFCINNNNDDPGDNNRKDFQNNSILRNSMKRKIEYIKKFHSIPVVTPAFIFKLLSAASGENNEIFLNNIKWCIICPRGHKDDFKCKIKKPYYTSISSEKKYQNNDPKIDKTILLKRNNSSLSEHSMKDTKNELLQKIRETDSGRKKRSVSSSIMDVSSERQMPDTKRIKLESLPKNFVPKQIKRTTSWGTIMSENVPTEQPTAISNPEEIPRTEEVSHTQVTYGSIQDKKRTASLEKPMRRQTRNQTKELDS

B1: FAM-ssARS1-1 (ssDNA)
DNA: TTACATCTTGTTATTTTACAGATTTTATGTTTAGATCTTTTATGCTTGCTTTTCAAAAGGCCTGCAGGCAAGTGCACAAA
B1 showed a Kd (Sld2) of 694 ± 50 nM and a Kd (Sld2T84D) of 179 ± 43 nM.

B2: Biotin-ssARS1-1 (ssDNA)
DNA: TTACATCTTGTTATTTTACAGATTTTATGTTTAGATCTTTTATGCTTGCTTTTCAAAAGGCCTGCAGGCAAGTGCACAAA
B2: binds (Dpb11;Sld2T84D).

B3: ARS1-A-C (ssDNA)
DNA: TTCCCTCTTGTTCTTTTCCCGCTTTTCTGTTTCGCTCTTTTCTGCTTGCTTTTCCCCCGGCCTGCCGGCCCGTGCCCCCC
B3: binds (GST-Sld2T84D [1]).

B4: ARS1-G-C (ssDNA)
DNA: TTACATCTTGTTATTTTACACATTTTATCTTTACATCTTTTATCCTTCCTTTTCAAAACCCCTCCACCCAACTCCACAAA
B4: binds (GST-Sld2T84D [1]).

B5: ARS1-T-A (ssDNA)
DNA: AAACAACAAGAAAAAAAACAGAAAAAAAGAAAAGAACAAAAAAGCAAGCAAAACAAAAGGCCAGCAGGCAAGAGCACAAA
B5: no binding (GST-Sld2T84D [2]).

B6: Sld2T84D (radiolabeled, with a PKA sequence at the N-terminus) (natural protein, S. cerevisiae, UniProt P34252 1-453, looked up)
chain: MYSFELDKLKIELKTWEHDFIDKNKREPTRDDIKSLRTVRQMYKQYSTLKKKQSLQRQKVDTQESVELPAHKKDHDEVVEIGPDPQVYGKAISIFDMNLSPIKPIYMTFTNNIDVNNDNSKTISNESSPRKTILLKSSPADRTLVAEPISSVKRQLNFQMLNASSTRTPTSSPCKNRNGKLVEIKKCSPTINPPLESGKPSGYYGPNSPLKLDEENIHLNISLNSSTKRRLQIAYPSLQKTPSKDQADISTSFSPSPLIRRPLTKSLIELAREHTEIVKEFGVLQEEDIEEEEEGEEGENGYDEKNHEDDFGLEDELIRPKVVKDIFQEDDDNDDSQAREDTFIRKRPKRRKVIRRLRDNDPETETAGFERDVHKELVKLKRRKVAEFLGSTSQISDTEFEHDPEASSGVVSSEQKPTAKRKGRKKYNLVSNNFRRLKLPKKNRFSNGRWGRR
modifications: 32P-phosphate on the N-terminal PKA sequence (radiolabeled with PKA and γ-32P-ATP)
For B6, the “percent of input pulled down (with ssARS1-1 at a ratio of 1.2 ssARS1-1/Sld2T84D)” value (GST–Dpb11) was 35.2%.
